# Assay results reported in article PMC7494017.
# Experiments:
# [1] = molecular target: SAV1 Y273E-WW12ex (mouse); experiment: ITC
# [2] = molecular target: SAV1 WW12 (aa E198-A268) (mouse) (UniProt Q8VEB2); experiment: ITC
# [3] = molecular target: SAV1 S245D-WW12ex (mouse); experiment: SEC-MALS
substance,measurement,setting,value
Dendrin PY23 (aa D222-G241) (from UniProt Q80TS7 222-241) (domain or fragment),Kd,[1],3.8 µM
Dendrin PY23 with the PPPY motif changed into PPDY (from UniProt Q80TS7 222-241) (domain or fragment),fold weakening of binding against WT dendrin PY23,[2],18 fold
SAV1 S245D-WW12ex (domain or fragment),stoichiometry N,[3],2
